Data as given in patent publication US20200199576.

How the values were obtained:
β-catenin, P35222 = molecular target: T1, β-catenin, P35222
T1 chain: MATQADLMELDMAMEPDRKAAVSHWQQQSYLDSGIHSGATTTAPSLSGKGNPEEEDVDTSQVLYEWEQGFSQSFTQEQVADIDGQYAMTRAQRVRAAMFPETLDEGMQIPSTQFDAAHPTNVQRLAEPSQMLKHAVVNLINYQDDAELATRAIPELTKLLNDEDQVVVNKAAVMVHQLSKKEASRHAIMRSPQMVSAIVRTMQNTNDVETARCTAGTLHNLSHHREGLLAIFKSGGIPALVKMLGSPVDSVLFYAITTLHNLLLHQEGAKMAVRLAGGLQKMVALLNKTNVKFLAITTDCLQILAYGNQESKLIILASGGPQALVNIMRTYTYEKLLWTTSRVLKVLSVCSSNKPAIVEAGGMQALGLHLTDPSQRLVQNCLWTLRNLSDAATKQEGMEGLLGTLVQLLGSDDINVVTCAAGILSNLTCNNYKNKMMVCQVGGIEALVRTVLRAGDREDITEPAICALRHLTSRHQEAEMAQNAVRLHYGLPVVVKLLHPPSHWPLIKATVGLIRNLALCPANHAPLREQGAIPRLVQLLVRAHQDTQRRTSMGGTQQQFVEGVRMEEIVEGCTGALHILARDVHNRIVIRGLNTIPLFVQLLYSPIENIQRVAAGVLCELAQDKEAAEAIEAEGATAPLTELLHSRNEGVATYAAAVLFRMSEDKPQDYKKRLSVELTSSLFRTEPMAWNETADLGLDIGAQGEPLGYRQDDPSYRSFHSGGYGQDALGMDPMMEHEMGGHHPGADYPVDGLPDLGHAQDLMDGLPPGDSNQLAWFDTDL

[1] = molecular target: protein arginine methyl transferase PRMT1, Q99873
Chain of protein arginine methyl transferase PRMT1, Q99873 (Q99873 whole entry, looked up): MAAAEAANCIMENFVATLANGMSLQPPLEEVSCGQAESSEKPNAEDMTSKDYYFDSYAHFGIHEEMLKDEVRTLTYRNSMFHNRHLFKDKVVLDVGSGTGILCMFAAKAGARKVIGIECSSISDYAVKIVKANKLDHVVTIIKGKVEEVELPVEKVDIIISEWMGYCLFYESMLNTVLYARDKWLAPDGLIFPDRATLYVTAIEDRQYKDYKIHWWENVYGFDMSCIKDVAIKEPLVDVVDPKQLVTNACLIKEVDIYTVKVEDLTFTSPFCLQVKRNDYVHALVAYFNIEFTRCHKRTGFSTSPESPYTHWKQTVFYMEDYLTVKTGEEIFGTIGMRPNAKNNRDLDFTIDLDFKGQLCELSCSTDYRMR

[2] = molecular target: phosphatase PPP3CA, Q08209
kinase MAPK3, P27361 = molecular target: T2, kinase MAPK3, P27361
T2 chain: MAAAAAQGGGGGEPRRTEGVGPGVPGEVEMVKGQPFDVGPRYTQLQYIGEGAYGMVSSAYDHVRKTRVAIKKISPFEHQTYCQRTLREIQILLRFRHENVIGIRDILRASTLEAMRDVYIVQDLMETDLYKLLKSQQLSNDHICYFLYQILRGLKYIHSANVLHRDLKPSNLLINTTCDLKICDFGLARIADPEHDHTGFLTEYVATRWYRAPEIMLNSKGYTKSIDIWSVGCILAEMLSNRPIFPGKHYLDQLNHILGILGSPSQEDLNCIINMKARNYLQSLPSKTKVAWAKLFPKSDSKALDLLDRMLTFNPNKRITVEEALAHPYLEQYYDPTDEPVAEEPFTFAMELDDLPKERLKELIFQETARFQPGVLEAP

CDK4, P11802 = molecular target: T3, CDK4, P11802
T3 chain: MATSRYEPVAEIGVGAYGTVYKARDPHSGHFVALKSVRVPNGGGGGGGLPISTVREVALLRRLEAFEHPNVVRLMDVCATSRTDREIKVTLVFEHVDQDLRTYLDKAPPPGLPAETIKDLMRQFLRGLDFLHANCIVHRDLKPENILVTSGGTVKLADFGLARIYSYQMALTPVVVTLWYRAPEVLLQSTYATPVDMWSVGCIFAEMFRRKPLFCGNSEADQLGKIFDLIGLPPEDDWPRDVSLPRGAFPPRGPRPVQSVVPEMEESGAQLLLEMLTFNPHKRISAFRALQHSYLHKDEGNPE

[3] = molecular target: T4, FAS-associated factor UbxD8, Q96CS3
T4 chain: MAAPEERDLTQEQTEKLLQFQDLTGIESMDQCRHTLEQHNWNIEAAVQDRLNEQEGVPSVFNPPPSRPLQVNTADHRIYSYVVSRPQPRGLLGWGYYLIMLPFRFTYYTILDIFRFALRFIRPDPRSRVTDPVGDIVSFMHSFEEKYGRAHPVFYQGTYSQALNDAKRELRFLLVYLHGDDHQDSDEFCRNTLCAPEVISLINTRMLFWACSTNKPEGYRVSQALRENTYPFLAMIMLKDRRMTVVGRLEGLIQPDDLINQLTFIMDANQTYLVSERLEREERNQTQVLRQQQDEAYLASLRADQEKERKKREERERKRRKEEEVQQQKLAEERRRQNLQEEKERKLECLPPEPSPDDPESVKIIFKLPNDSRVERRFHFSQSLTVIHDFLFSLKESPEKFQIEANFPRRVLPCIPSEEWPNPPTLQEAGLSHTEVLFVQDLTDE

[4] = molecular target: protein Arg methyltransferase 5 (PRMT5), O14744
Chain of protein Arg methyltransferase 5 (PRMT5), O14744 (O14744 whole entry): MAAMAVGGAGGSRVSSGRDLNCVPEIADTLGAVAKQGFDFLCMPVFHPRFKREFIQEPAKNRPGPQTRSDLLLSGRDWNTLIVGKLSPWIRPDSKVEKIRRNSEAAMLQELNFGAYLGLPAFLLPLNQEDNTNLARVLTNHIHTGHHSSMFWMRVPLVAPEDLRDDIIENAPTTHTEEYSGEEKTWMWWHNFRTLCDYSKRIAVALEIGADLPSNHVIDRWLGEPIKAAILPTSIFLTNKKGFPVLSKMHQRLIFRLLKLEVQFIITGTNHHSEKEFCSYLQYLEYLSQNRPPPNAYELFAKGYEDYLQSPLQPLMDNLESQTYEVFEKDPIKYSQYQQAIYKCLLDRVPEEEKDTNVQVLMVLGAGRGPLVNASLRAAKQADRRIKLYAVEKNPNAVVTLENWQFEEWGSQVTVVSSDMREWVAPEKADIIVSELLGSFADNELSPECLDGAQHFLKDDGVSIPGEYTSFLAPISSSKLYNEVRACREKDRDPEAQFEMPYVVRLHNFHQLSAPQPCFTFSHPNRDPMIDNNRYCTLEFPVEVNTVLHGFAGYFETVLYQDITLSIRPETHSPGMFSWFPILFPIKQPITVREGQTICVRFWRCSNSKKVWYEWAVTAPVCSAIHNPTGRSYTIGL

[5] = molecular target: T5, UV excision repair protein HHR23A (RAD23A), P54725
T5 chain: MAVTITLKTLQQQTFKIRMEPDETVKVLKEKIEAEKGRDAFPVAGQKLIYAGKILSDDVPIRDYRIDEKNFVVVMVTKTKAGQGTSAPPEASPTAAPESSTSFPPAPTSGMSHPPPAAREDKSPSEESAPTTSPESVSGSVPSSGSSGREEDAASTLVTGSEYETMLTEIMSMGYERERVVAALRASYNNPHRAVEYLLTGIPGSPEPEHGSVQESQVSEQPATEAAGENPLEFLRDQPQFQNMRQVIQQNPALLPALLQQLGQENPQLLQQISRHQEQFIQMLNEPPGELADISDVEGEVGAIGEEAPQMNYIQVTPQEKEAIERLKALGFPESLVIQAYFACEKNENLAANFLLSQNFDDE

Chain of p53, P04637 (P04637 whole entry, looked up): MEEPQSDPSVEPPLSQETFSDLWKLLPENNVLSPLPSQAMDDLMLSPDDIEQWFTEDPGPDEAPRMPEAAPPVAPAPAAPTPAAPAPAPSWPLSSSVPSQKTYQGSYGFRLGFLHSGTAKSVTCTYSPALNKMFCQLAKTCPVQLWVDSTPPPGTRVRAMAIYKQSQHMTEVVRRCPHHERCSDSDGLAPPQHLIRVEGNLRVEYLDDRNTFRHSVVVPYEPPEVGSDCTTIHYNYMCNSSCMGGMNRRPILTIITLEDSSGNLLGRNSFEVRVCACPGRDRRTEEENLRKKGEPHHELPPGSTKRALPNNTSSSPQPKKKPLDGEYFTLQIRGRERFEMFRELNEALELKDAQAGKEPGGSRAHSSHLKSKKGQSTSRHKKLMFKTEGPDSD
Chain of CDK1, P06493 (P06493 whole entry, looked up): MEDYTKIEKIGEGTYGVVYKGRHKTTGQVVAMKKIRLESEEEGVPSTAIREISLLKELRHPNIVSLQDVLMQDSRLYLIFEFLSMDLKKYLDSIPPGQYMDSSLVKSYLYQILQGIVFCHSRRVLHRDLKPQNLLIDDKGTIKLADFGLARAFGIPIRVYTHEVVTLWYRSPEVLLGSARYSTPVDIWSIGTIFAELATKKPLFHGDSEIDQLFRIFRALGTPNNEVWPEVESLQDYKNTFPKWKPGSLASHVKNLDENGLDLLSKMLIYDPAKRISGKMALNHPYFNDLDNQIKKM
Chain of MAPK1, P28482 (P28482 whole entry): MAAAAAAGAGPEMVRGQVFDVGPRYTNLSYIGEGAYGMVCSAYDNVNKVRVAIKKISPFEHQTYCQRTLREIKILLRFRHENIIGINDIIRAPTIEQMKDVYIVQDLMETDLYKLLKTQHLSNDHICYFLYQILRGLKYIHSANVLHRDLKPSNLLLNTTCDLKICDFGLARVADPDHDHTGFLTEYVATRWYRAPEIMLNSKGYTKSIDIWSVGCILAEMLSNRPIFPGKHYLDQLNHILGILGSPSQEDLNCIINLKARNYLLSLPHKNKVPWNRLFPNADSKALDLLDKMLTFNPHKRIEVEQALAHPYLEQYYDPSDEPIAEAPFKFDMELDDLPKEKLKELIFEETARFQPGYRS

B1: wt CHIP (full-length) (protein)
chain: MKGKEEKEGGARLGAGGGSPEKSPSAQELKEQGNRLFVGRKYPEAAACYGRAIMQQHEQALADCRRALELDGQSVKAHFFLGQCQLEMESYDEAIANLQRAYSLAKEQRLNFGDDIPSALRIAKKKRWNSIEERRIHQESELHSYLSRLIAAERERELEECQRNHEGDEDDSHVRAQQACIEAKHDKYMADMDELFSQVDEKRKKRDIPDYLCGKISFELMREPCITPSGITYDRKDIEEHLQRVGHFDPVTRSPLTQEQLIPNLAMKEVIDAFISENGWVEDY
in vitro substrate ubiquitination with wt UB through wt Uba1-UbcH5b-CHIP, Western blot (β-catenin, P35222): CHIP could poly-ubiquitinate MAPK3, β-catenin and CDK4 | p53 ubiquitination with wt UB, Western blot (p53, P04637): p53 modification by wt UB going through the wt Uba1-UbcH5b-CHIP cascade | in vitro substrate ubiquitination with wt UB through wt Uba1-UbcH5b-CHIP, Western blot [1]: CHIP ubiquitination of PRMT1 and PPP3CA generated mono-ubiquitinated species | in vitro substrate ubiquitination with wt UB through wt Uba1-UbcH5b-CHIP, Western blot [2]: CHIP ubiquitination of PRMT1 and PPP3CA generated mono-ubiquitinated species | in vitro substrate ubiquitination with wt UB through wt Uba1-UbcH5b-CHIP, Western blot (kinase MAPK3, P27361): CHIP could poly-ubiquitinate MAPK3, β-catenin and CDK4 | in vitro substrate ubiquitination with wt UB through wt Uba1-UbcH5b-CHIP, Western blot (CDK4, P11802): CHIP could poly-ubiquitinate MAPK3, β-catenin and CDK4

B2: wt E6AP (full-length) (protein)
chain: MKRAAAKHLIERYYHQLTEGCGNEACTNEFCASCPTFLRMDNNAAAIKALELYKINAKLCDPHPSKKGASSAYLENSKGAPNNSCSEIKMNKKGARIDFKDVTYLTEEKVYEILELCREREDYSPLIRVIGRVFSSAEALVQSFRKVKQHTKEELKSLQAKDEDKDEDEKEKAACSAAAMEEDSEASSSRIGDSSQGDNNLQKLGPDDVSVDIDAIRRVYTRLLSNEKIETAFLNALVYLSPNVECDLTYHNVYSRDPNYLNLFIIVMENRNLHSPEYLEMALPLFCKAMSKLPLAAQGKLIRLWSKYNADQIRRMMETFQQLITYKVISNEFNSRNLVNDDDAIVAASKCLKMVYYANVVGGEVDTNHNEEDDEEPIPESSELTLQELLGEERRNKKGPRVDPLETELGVKTLDCRKPLIPFEEFINEPLNEVLEMDKDYTFFKVETENKFSFMTCPFILNAVTKNLGLYYDNRIRMYSERRITVLYSLVQGQQLNPYLRLKVRRDHIIDDALVRLEMIAMENPADLKKQLYVEFEGEQGVDEGGVSKEFFQLVVEEIFNPDIGMFTYDESTKLFWFNPSSFETEGQFTLIGIVLGLAIYNNCILDVHFPMVVYRKLMGKKGTFRDLGDSHPVLYQSLKDLLEYEGNVEDDMMITFQISQTDLFGNPMMYDLKENGDKIPITNENRKEFVNLYSDYILNKSVEKQFKAFRRGFHMVTNESPLKYLFRPEEIELLICGSRNLDFQALEETTEYDGGYTRDSVLIREFWEIVHSFTDEQKRLFLQFTTGTDRAPVGGLGKLKMIIAKNGPDTERLPTSHTCFNVLLLPEYSSKEKLKERLLKAITYAKGFGML
full-length E6AP auto-ubiquitination with wt UB, Western blot (wt UbcH7 (human E2)): wt E6AP can be auto-ubiquitinated by the wt Uba1-UbcH7 pair | in vitro substrate ubiquitination with wt UB through Uba1-UbcH7-E6AP, Western blot (β-catenin, P35222): CDK1, CDK4 and β-catenin were strongly ubiquitinated by E6AP with the formation of high molecular weight bands | in vitro substrate ubiquitination with wt UB through Uba1-UbcH7-E6AP, Western blot [3]: MAPK1, PRMTS, and UbxD8 mainly generated species with one or two conjugated UBs | in vitro substrate ubiquitination with wt UB through Uba1-UbcH7-E6AP, Western blot [4]: MAPK1, PRMTS, and UbxD8 mainly generated species with one or two conjugated UBs | p53 ubiquitination in the presence of E6, Western blot (p53, P04637): p53 can be efficiently ubiquitinated by wt UB through the wt Uba1-UbcH7-E6AP cascade in the presence of E6 | in vitro substrate ubiquitination with wt UB through Uba1-UbcH7-E6AP, Western blot (CDK1, P06493): CDK1, CDK4 and β-catenin were strongly ubiquitinated by E6AP with the formation of high molecular weight bands | in vitro substrate ubiquitination with wt UB through Uba1-UbcH7-E6AP, Western blot [5]: E6AP-catalyzed ubiquitination of HHR23A, a previously identified E6AP substrate, was confirmed | in vitro substrate ubiquitination with wt UB through Uba1-UbcH7-E6AP, Western blot (MAPK1, P28482): MAPK1, PRMTS, and UbxD8 mainly generated species with one or two conjugated UBs | in vitro substrate ubiquitination with wt UB through Uba1-UbcH7-E6AP, Western blot (CDK4, P11802): CDK1, CDK4 and β-catenin were strongly ubiquitinated by E6AP with the formation of high molecular weight bands
